Data from the supplement of paper PMC12042874.
± gives the uncertainty stated by the source.

Assay: amyloid nucleation score (Sup35N fusion, yeast selection) (log enrichment); library NNK3; higher = more nucleation; inactive = no reads after selection
How it was run: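 On medium lacking adenine and uracil, psi-negative yeast expressing peptides of 20 random codons fused to Sup35N were grown 7 days at 30°C after a 24-hour induction with 100 μM copper sulfate. Illumina sequencing of input and output plasmid inserts gave the reads, and sequences under 100 input reads were excluded. The nucleation score is the DiMSum log enrichment of output over input reads, centred on the mode score of non-aggregating sequences.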

| Substance | amyloid nucleation score |
| --- | --- |
| GSGVRGQRMSGKCR | 0.164 ± 0.42 |
| TATLAC | inactive |
| GWVYDMVYYRSVKMGCAKRS | 0.389 ± 0.22 |
| VVLFKISSYPRHIHFGFHLL | inactive |
| ARNFLVRIWHCDRFSDCGII | inactive |
| SKSITEADNPRNILNASGVE | inactive |
| SVLHLWGLDYFNGEYTMRKG | 1.02 ± 0.17 |
| GNYVTVHIYVKAVFGNG | inactive |
| LGAKILCNWRVVHDSSCQHL | inactive |
| LCNKWY | inactive |
| FTLASRLLWGRMCNV | inactive |
| IMKKESVAHHVNIGIHASLT | -0.101 ± 1.1 |
| YVNFFVKVSV | inactive |
| SMGKCRFRCVNIIFYWRWIH | 1.25 ± 0.14 |
| FLLNQIIGQLKHHLFVVSVN | inactive |
| TLCMVQRSRVVSLLSVGRIL | -0.223 ± 0.55 |
| NDWRCKEVTSSDIWAFVYCS | 0.967 ± 0.12 |
| AWKTLAHRQSWGGCNRA | inactive |
| TSAMSYFGDIYWCRKFRRVG | inactive |
| FAHEVLYSANT | inactive |
| NRATVYMTQAKGCCSALFQV | 0.315 ± 0.3 |
| IGPVTLKERETRTP | inactive |
| NCSYIDQR | 0.483 ± 0.14 |
| ESASSYFLY | 0.583 ± 0.24 |

| Substance | amyloid nucleation score |
| --- | --- |
| MAKTMM | inactive |
| DECYNVLRSVVYGMTSSTGW | inactive |
| GHFGVLMSGSTGGNLANQSG | inactive |
| RFQCWVWSQ | inactive |
| TYRCYELVGDTVC | inactive |
| LLVKSYNLYIMFSPHL | 1.68 ± 0.078 |
| QRKVSWHAGYSA | inactive |
| RSVTNGQSCLRTVGILSFLA | inactive |
| IANLRAFILFMCDMKSTNPK | inactive |
| FKSLHTGVQRNTLCARSRTF | inactive |
| VWQYNDGSYCVVMYVSSSDY | 1.06 ± 0.19 |
| TFFNFVDGTSVWRFAGRHIY | inactive |
| VIMADA | inactive |
| VINSR | inactive |
| TLGDGRPLCLREEWEGPVTC | inactive |
| AHVLVSFCFSFTRSVKFGLV | inactive |
| KALWCGYE | inactive |
| QMSGMFTLVDWT | inactive |
| RPEAAYSVKYLVLV | inactive |
| RMHGETARWLGAQIWSDRSC | inactive |
| GPHRILIAVESMTYFEGEVW | inactive |
| CCLPSYSVGCRASGDDSW | inactive |
| HPVGACCLQLRFGLYCICVA | 0.023 ± 0.26 |
| HSITNITCSFDLAFLRMHVL | 0.871 ± 0.11 |

| Substance | amyloid nucleation score |
| --- | --- |
| MNLYVSSLIGISARMWDWFS | 0.289 ± 0.25 |
| YFKSSFQKSLIDEVALKGWL | 0.224 ± 0.54 |
| NYAYTVMGGTIYRLWGRVMR | inactive |
| KSVNLHA | inactive |
| RVITCWSQQCWHDRCLVCGK | inactive |
| HLNGVALFNW | 0.917 ± 0.11 |
| IILTIGRMGLFNMAK | -0.152 ± 0.47 |
| RLICLMGSLW | 1.34 ± 0.081 |
| VSDYYDKYGLYFCWFWDGYK | inactive |
| YSWDILSLLRGKETQACICY | inactive |
| YVCGQSG | inactive |
| WLIFELIVSELSTRHHKALD | inactive |
| WCQDATMYNPSYY | inactive |
| LGYDWRDVNNGK | inactive |
| TYNRHSFLA | inactive |
| NFSNHCRKLGEME | inactive |
| IRITNDNFVVRLVSQTVGLK | inactive |
| PSRNYIVELS | inactive |
| RMILTSQLLQKENGLSVTIN | 0.853 ± 0.2 |
| GFSCVNFFAWIL | 1.81 ± 0.082 |
| FGTSSEF | inactive |
| FRESFLSSYVEYMTLGPGSN | -0.342 ± 0.87 |
| LRFTRRFYSRGWVRW | inactive |
| VRLSVMG | inactive |

| Substance | amyloid nucleation score |
| --- | --- |
| MFTGGMFRKVTIQIL | inactive |
| SCTLQNFRGLKNSFYGYYAT | inactive |
| EKVSYFSNNVVLIVVINRVC | inactive |
| KLLCSLNLVIADEFLTKKGD | 1.85 ± 0.099 |
| LPHPALKDFRISVRQLIWVR | 1.04 ± 0.17 |
| GKSLMK | inactive |
| DVYISKDIRCCYLLKTFLPY | 0.123 ± 0.27 |
| VNILVFLCFAPSLSSRYWWL | 2.28 ± 0.081 |
| DHVGCATNRSDVDVTVFV | inactive |
| LPNRYVMINGCIRQFAKCDI | 1.58 ± 0.08 |
| ILVFR | inactive |
| FGRYPMYIASLITNSKVFGC | -0.709 ± 0.41 |
| ATICYEVRWEPDSSPGRS | inactive |
| DIRCGFLHKQGPLTMRATEQ | inactive |
| VFRTSLLKSYFGFNMKCDNY | 0.039 ± 0.26 |
| LAQSQNVVEARINSPWWDSP | inactive |
| WKWVRRYVRATIRSYSKDLD | inactive |
| CRQWCDWCTGSYPGYCFQC | inactive |
| DKGLGVLRHLNRWIVCTGHD | inactive |
| VIAVSYNFTWFKTSIFN | 1.31 ± 0.11 |
| CSTIVWWEIAYKL | inactive |
| TTCCRFYREIKFFRIS | inactive |
| YWPIHSSTAETDVTVRTRSY | 1.01 ± 0.14 |
| LIYDRHSWNHWSSQHVDRDG | inactive |

| Substance | amyloid nucleation score |
| --- | --- |
| EICWKLIGRMRC | inactive |
| MDLCMETGQYSLRNTVCAFL | inactive |
| SLFYHTGRS | 0.459 ± 0.15 |
| KRDWHLVTMG | -0.134 ± 0.32 |
| CLFSGEGLARKCYSDNS | inactive |
| KIMFLMGSASMDSTGTC | 0.863 ± 0.12 |
| GVWVA | -0.931 ± 1.9 |
| LVILVVDSRRYDMCLSNRDF | inactive |
| YMQQSR | inactive |
| CWKQGLNRYLWW | 0.752 ± 0.13 |
| RLKLMRP | inactive |
| SGCCLDSLYLTIRLDCLRWR | inactive |
| SGGTEKRSKRAGLLLFRTEE | inactive |
| VQLIWDFYSCSN | inactive |
| VSGLDWFM | inactive |
| DAPVVTVRAGNAGNHSMIPW | inactive |
| VGMGLAKDVR | inactive |
| YQDLP | inactive |
| WMYKTWHRI | inactive |
| SRDTVRVLNLLGRKALMRGQ | inactive |
| LYLLSKRFHNLYLLDKVLKY | inactive |
| LCECR | inactive |
| LRWIGH | inactive |
| NYFGLWGCHTCITCYPVTLV | 1.29 ± 0.13 |

| Substance | amyloid nucleation score |
| --- | --- |
| FFLNLKDMFDHAL | inactive |
| KTSIRRCLSIRC | inactive |
| IYGNFS | inactive |
| RLIWFE | inactive |
| RKVKILWNDTLTFRT | inactive |
| PWPNVLLCDNDRLSFRYRSF | 0.972 ± 0.1 |
| KEYGLFLYLNFFLDWFNFIN | inactive |
| LIELSSSPRSYGHQVLM | inactive |
| HSVFISLGMFRPVTSYL | inactive |
| VSRMARYRLLTYRSAFNSML | -0.605 ± 1.2 |
| ANGLWKRIAFEGTARCEGMG | inactive |
| YVITQQSSFSVTLYSSINFC | 0.625 ± 0.33 |
| VRNYGLDFRRACGWT | inactive |
| VNIYGCSYVLHPGCCNGESR | 2.84 ± 0.073 |
| YLDFVFGLRTRDNYLWVRPT | inactive |
| RSCSLWVY | inactive |
| KWLVPTQG | inactive |
| NSLVGLVCKTGSSFTRNKVV | -0.104 ± 0.75 |
| YRWGISLIEMEQGGVVF | inactive |
| VSINRRLFCLLGDDFTS | inactive |
| SVLVDY | inactive |
| DSNVRSFVSMLSVN | inactive |
| GRSLVYR | inactive |
| SSSFVYFYSLVRFAPTLREY | inactive |

| Substance | amyloid nucleation score |
| --- | --- |
| VCSVFLLLCANRLRVGGNYI | inactive |
| PTKMCCLFTVIF | 2.13 ± 0.069 |
| NLRHCGCSALGTMTDVNVRG | 0.692 ± 0.2 |
| SQFDEMLFSKMEPWQVLFTM | inactive |
| DTSKNYAIYFGKLGDWSARS | -0.01 ± 0.96 |
| CLTLYRHQ | 0.313 ± 0.54 |
| SAWLATGTYEVKAQRG | inactive |
| IFILRLDIIALLNVTGIRIW | inactive |
| GFSYMLVFSNGVYMLIRIRW | inactive |
| CPGDPVESRCFPVLVNLRRG | inactive |
| IVSKMAVYMAGTSALVLPLL | -0.086 ± 0.88 |
| HCVNRRKQYVRIRTYARLPC | inactive |
| NASMNKYYVRFTFGNPHVLL | 2.52 ± 0.061 |
| IILFINATGRIRSWCDEYGL | 0.681 ± 0.27 |
| VVLSWT | -0.477 ± 1.1 |
| SYVVRLMSLVAWN | inactive |
| SFSCYCTLLGLSVHYVNPTV | 1.82 ± 0.1 |
| GRARMFGLGRVFKVCMKLRA | -0.543 ± 0.54 |
| SILLDMSDQFPALGFSLFII | inactive |
| KMWCNGMAISLHVRRLCQV | inactive |
